Measurements taken from patent US20130039933.

test system: S366 peptide (STING peptide substrate with serine 366)

Substance | Activity (cpm) | Fold induction [fold]
CK1δ | 25200 | 1.62
NEK6 | 35600 | 6.45
NEK7 | 19100 | 5.28
PIM2 | 3720 | 2.63

test system: A366 peptide (STING peptide substrate with alanine at 366)

Substance | Activity (cpm)
CK1δ | 15600
NEK6 | 5510
NEK7 | 3620
PIM2 | 1410
